Laboratory results taken from US20260265404A1 (published 2026).
Numbering of substitutions follows the chain as printed. One block for each binder: values may come before it.

Legend:
[1] = biological target: T1, human full-length CD33 (CD33^FL) (UniProt P20138 18-364); experiment: SPR (Carterra); hybridoma supernatant
[2] = biological target: T1, human full-length CD33 (CD33^FL); experiment: SPR (Carterra); 4 µg/mL
[3] = biological target: T1, human full-length CD33 (CD33^FL); experiment: SPR (Carterra); 1 µg/mL
[4] = biological target: T1, human full-length CD33 (CD33^FL); experiment: SPR (Biacore T100)

T1 sequence (P20138 18-364): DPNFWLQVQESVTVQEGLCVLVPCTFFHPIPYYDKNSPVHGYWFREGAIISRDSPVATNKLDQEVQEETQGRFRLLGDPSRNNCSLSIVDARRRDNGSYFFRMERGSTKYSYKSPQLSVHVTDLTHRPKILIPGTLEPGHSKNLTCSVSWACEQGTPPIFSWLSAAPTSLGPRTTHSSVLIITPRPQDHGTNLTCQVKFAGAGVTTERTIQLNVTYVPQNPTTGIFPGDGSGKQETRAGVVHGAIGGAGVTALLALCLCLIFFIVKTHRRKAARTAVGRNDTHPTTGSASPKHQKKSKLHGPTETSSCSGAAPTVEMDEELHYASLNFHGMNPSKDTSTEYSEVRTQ

Kd [2]: 27 nM
Kd [3]: 18 nM
Kd [4]: 4.89 nM
B2: 2D3 antibody (human CD33V-set antibody clone, hybridoma-derived) (antibody, V domains shown)
VH: EVQLLESGGGLVQPGGSLSLSCAASGFTFSIYAMSWVRQAPGKGLEWVSAISDSGGTTYYADSVKGRFTISRDNSKNMLYLEMNSLRAEDTAIYYCAKRTRYFNGMDVWGQGTTVTVSS
VL: EIVMTQSPATLSLSPGERATLSCRASQSGSSSFLSWYQQKPGQAPRLLIYGASTRATGIPARFSGSGSGTDFTLTISSLQPEDFAVYYCQQDYNLPFTFGPGTKVDIK

Kd [2]: 40 nM
Kd [3]: 24 nM
B3: 1H8 antibody (human CD33V-set antibody clone, hybridoma-derived) (antibody, V domains shown)
VH: QVQLVESGGGVVQPGGSLRLSCAASGFTFGSYGMHWVRQAPGKGLEWVAVIWYDGSNEYYADSVKGRFTVSRDNSKHTLYLQMNRLRAEDTAVYYCARDLDYDSSGGDYWGQGILVLVSS
VL: EIVLTQSPDFQSVTPKEKVTITCRASQNIGGNLHWYQQKPDQSPKLLIRYATQPFSGVPSRFGGSGSGTDFTLTINSLEAEDAATYYCHQSSSLPLTFGGGTKVEIK

Kd [2]: 42 nM
Kd [3]: 13 nM
Kd [4]: 3.71 nM
Kd [1]: 112 nM
B5: 1H10 antibody (human CD33^PAN antibody clone, hybridoma-derived) (antibody, V domains shown)
VH: QVQLVQSGAEVKKPGASVKVSCKGSGYIFTSYDMHWVRQAPGQGLEWMGIIDPSGGSTSYAQKFQGRVTMTRDTSMSTVYMELSSLRSEDTAVYYCTRDYSWSYFDYWGQGTLVTVSS
VL: AIQMTQSPSSLSASVGDRVTITCRASQGIRIYLGWYQQKPGKAPKLLIYATSSLQSGVPSRFSGSGSGTDFTLTISSLQPEDFATYYCLQDYNYPWTFGQGTKVEIK

Kd [2]: 78 nM
Kd [3]: 67 nM
Kd [1]: 69 nM
B7: 1E6 antibody (human CD33^PAN antibody clone, hybridoma-derived) (antibody, V domains shown)
VH: QVQLVESGGGVVQPGRSLRLSCAASGFTFSSYDIHWVRQAPGKGLEWVAVIWYDGSHNYYSDSVKGRFTISRDNSKNTLYLQMNSLRAEDTAVYYCARDYSGSYYDYWGQGTLVTVSS
VL: B5 VL with I31N, Y32D, T51A, S53N, N93S, W96R

More lines, now with the values behind:

B1: 1D2 antibody (human CD33^PAN antibody clone, hybridoma-derived) (antibody, V domains shown)
VH: B7 VH with H57Q, N58K, S61A
VL: B5 VL with I31N, Y32D, K45E, T74I, N93S, W96R
Kd [1]: 116 nM

B4: 1A9 antibody (human CD33^PAN antibody clone, hybridoma-derived) (antibody, V domains shown)
VH: EVQLVESGGGLVQPGGSLRLSCAASGFTFSIYDMHWVRQATGKGLEWVSAIGTAGDTYYAGSVKGRFTISRENAKNSLYLQMNSLRAGDTAVYYCAREYSGYYFDYWGQGTLVTVSS
VL: B5 VL with G28D, I31N, Y32D, L46I, A50G, T51A, L73F, D91E, W96C, V104L
Kd [2]: 130 nM
Kd [3]: 36 nM
Kd [1]: 67 nM

B6: 1B9 antibody (human CD33^PAN antibody clone, hybridoma-derived) (antibody, V domains shown)
VH: B7 VH with T28I, Y105F
VL: B5 VL with G28D, I31N, Y32D, Q37L, K39R, T51A, N93S, W96R, K103T
Kd [1]: 77 nM
